The data set can be described thus: soluble on expression in E. coli; label from the status in PepcDB or PDB records.
For “MGSDKIHHHHHHMKIKVVLSGYGTVGREFIKLLHEKCSYIYETYGIELVVSGVLGRNVAIHNEDGLSIHNLLMYGSSSAAIEKYIEYHPEERATDNISGTVLVESTVTNLKDGNPGKQYIKQAIEKQMDIVAISKGALVTNWREINEAAKIANVRIRYSGATAAALPTLDIGQFSLAGCHVKKIEGILNGTTNYILTKMNEEDITFEEALKEAQRKGIAETNPILDVSGSDSACKLLLLTNSLMGTEHMLTDIYIKGIEHVTKQQIRNAKEQNKFIKLIASAYKDQDGKVTLKVEPYEIDKDHPLANVNGTEKGITFFTDTMGQVTTIGGASNPRGAAAAALKDIINLYRKDLSLSNR”, the “soluble on expression in E. coli” value is “not soluble”.

For the sequence “GPGSMSAPTPRTGIIAGFNKGHVTTRRPRQPSPNDRFAVPHKHLRAVKAIIADLVGLSPLEKRVQEFLRVGKEKRALKYCKKRLGDFTAAKKKRSKMEEALRHATKKHH”, the “soluble on expression in E. coli” value is listed as “soluble”.

Consider “MSLKRTAEEIKQEVKSLSQQALDAVKKHTHSPEGVKELLNFMSRFPERSFRNQLLIEEQFPGATACLGRAALKKEGIYIKKGEQGNKIFVRKTVKGFYEKGRGFVRETEATPEDKKRIKSGQIEVIKKPYYTIEKVFDITQTQLKPEDYPKIFPNRVFDFQLDAKGQSELQAGIQAVANNIGIQIRDMTESEEGHHHHHH”, for which the “soluble on expression in E. coli” value was “soluble”.

Take “MDDRTEYDVYTDGSYVNGQYAWAYAFVKDGKVHYEDADVGKNPAAATMRNVAGEIAAALYAVKKASQLGVKIRILHDYAGIAFWATGEWKAKNEFTQAYAKLMNQYRGIYSFEKVKAHSGNEFNDYVDMKAKSALGIRDLEHHHHHH”: the “soluble on expression in E. coli” value is listed as “soluble”.

As for “MSNKLETGIQYMQEGNWEEAAKNFTEAIEENPKDALGYINFANLLDVLGDSERAILFYKRALELDDKSAAAYYGLGNVYYGQEQFTEAKAVFEQAMQAGLQSADVTFMLGITHVQLGNDRLALPFLQRATELDENDVEAVFQCGLCFARLEHVQEAKPYFEKVLEMDEEHADAYYNLGVAYVFEENNEKALALFKKATEIQPDHFLAGNGVRLLEQEAE”, the “soluble on expression in E. coli” value is “not soluble”.

With “MGSDKIHHHHHHMKLDLVRFFQACNPSKTLVVSKPEDRQYYIDFSKVRGAKIIEELGRTITRLSPEQPTCQLFTGHIGCGKSTELLRLKAELEQQGFHVVYFESSQSLDMADIDVTDILLAVAREVSQSLEAIKINLKPGYFKNLFTEISEFLQTPLDIGVEAELSVGIAKITAKTKDSPKLRGQLRQYLEPRTNGILESINKELLKPAREKLKQEGKKGLVVIIDNLDRVDNSLKPSGYYQPEYLFVERGEQLNQLNCHVVYTIPLVLIFSNALGRLINRFGIDPKVLPMVPVQVQDGSQFLQGITLLQQMVMARAFPGVSWEQSRHLITEVFDSLDTLERLCRVSGGHLRNLLMLLFRCLQQEDPPLSRECVDRVIKQRRNELTLAITPDEWELLHEVAQEKNLRGHERYDLLLRSMFVFEYRDEDGSWFDINPILAEAKEFRL”, the “soluble on expression in E. coli” value is on record as “not soluble”.

Consider “MGDIMRPIPFEELLTRIFDEYQQQRSIFGIPEQQFYSPVKGKTVSVFGETCATPVGPAAGPHTQLAQNIVTSWLTGGRFIELKTVQILDRLELEKPCIDAEDECFNTEWSTEFTLLKAWDEYLKAWFALHLLEAMFQPSDSGKSFIFNMSVGYNLEGIKQPPMQQFIDNMMDASDHPKFAQYRDTLNKLLQDDAFLARHGLQEKRESLQALPARIPTSMVHGVTLSTMHGCPPHEIEAICRYMLEEKGLNTFVKLNPTLLGYARVREILDVCGFGYIGLKEESFDHDLKLTQALEMLERLMALAKEKSLGFGVKLTNTLGTINNKGALPGEEMYMSGRALFPLSINVAAVLSRAFDGKLPISYSGGASQLTIRDIFDTGIRPITMATDLLKPGGYLRLSACMRELEGSDAWGLDHVDVERLNRLAADALTMEYTQKHWKPEERIEVAEDLPLTDCYVAPCVTACAIKQDIPEYIRLLGEHRYADALELIYQRNALPAITGHICDHQCQYNCTRLDYDSALNIRELKKVALEKGWDEYKQRWHKPAGSGSRHPVAVIGAGPAGLAAGYFLARAGHPVTLFEREANAGGVVKNIIPQFRIPAELIQHDIDFVAAHGVKFEYGCSPDLTIEQLKNQGFHYVLIATGTDKNSGVKLAGDNQNVWKSLPFLREYNKGTALKLGKHVVVVGAGNTAMDCARAALRVPGVEKATIVYRRSLQEMPAWREEYEEALHDGVEFRFLNNPERFDADGTLTLRVMSLGEPDEKGRRRPVETNETVTLLVDSLITAIGEQQDTEALNAMGVPLDKNGWPDVDHNGETRLTDVFMIGDVQRGPSSIVAAVGTARRATDAILSRENIRSHQNDKYWNNVNPAEIYQRKGDISITLVNSDDRDAFVAQEAARCLECNYVCSKCVDVCPNRANVSIAVPGFQNRFQTLHLDAYCNECGNCAQFCPWNGKPYKDKITVFSLAQDFDNSSNPGFLVEDCRVRVRLNNQSWVLNIDSKGQFNNVPPELNDMCRIISHVHQHHHYLLGRVEV”, for which the “soluble on expression in E. coli” value was “soluble”.

For the sequence “MGSDKIHHHHHHMNTPAPRKRREMKIKTATVTGVRQISPDLIRFSFDCPEIVGADLGFTDHYIKILFVPAGADYSWPFDMAEIAETQPRELQPVRRTYTFRTVDTVAGTFDIDFVAHGTDGLAGPWAQQAQVGDVIAFGGPGGAWKPETTYEHYVLAGDEAAAPAIFAALEHLPAGTTAKAFIEISSNEARFNAPASDNIEVVWVPRDGATHGTLLIDALRQDGYPTKKTSWFIHGVAEMVKETRKFLFVEGNVDKADASISGYWRLGMTEDQWQASKREFNEQNEAEELALSKA”, the “soluble on expression in E. coli” value is listed as “not soluble”.

On to “MGSDKIHHHHHHLYTYLQYIQSSVQTDVGFCVDGAKNLENMYESTKAVGSGPVKRQAGYGASSPSRASGSHPAPSPYDAASTSSSSSSDSCCSCGIGLAGPAGFPGRPGRDGIDGPAGKPGRDGQDLDGESSSDGSQIELDCPAGPPGPPGNPGPQGNSGRPGMDGMPGRNGRCGRPGEQGERGPNGEDGRPGRRGDDGMPGTVNEIPGQAGPPGLRGAPGATGSQGPRGNDGRPGNKGPAGPPGDQGFDGAPGGPGADGEPGAQGPLGAKGECSHCPPPRTAPGY”, for which the “soluble on expression in E. coli” value is listed as “not soluble”.

For “MEESRADGRNPNQLRPFSCTRNPLDRAHGSARWAQGDTIVLAAVYGPKPGTRKGENPEKASIEVVWKPMTGQIGKQEKEYEMTLKRTLQSICLLTVHPNTTTSVILQVVGNDGSLLPCAINACCAALVFAGIPLKHLAVAIGCGVLEDGEVILDTNKAEEQQLKSFAHLVFPNSRKSASSKEPNQKEEDSERGLITSITHGVMSEEDYFSCIERGLAASSRISDFMRTTLQKQAPGDVLEHHHHHH”, the “soluble on expression in E. coli” value is recorded as “soluble”.

Consider “TVEKSVVFKAEGEHFTDQKGNTIVGSGSGGTTKYFRIPAMCTTSKGTIVVFADARHNTASDQSFIDTAAARSTDGGKTWNKKIAIYNDRVNSKLSRVMDPTCIVANIQGRETILVMVGKWNNNDKTWGAYRDKAPDTDWDLVLYKSTDDGVTFSKVETNIHDIVTKNGTISAMLGGVGSGLQLNDGKLVFPVQMVRTKNITTVLNTSFIYSTDGITWSLPSGYCEGFGSENNIIEFNASLVNNIRNSGLRRSFETKDFGKTWTEFPPMDKKVDNRNHGVQGSTITIPSGNKLVAAHSSAQNKNNDYTRSDISLYAHNLYSGEVKLIDDFYPKVGNASGAGYSCLSYRKNVDKETLYVVYEANGSIEFQDLSRHLPVIKSYN”, for which the “soluble on expression in E. coli” value is given as “soluble”.

As for “MMIENLLIELLTEELPPKSLDKLGNAFAAVIADSLKSQNLTTPDTILTAFASPRRLAVHLTAIPAQAPDQVVALKLMPITVGLDAQGQPTPALHKKLAALGMENVDASALKRVQESKAEMLFLEQNVTGILLAAGLQKAMEDAIRQLPVSKVMTYQLDDGWENVHFVRPVHGLIALHGQKIIPVSAFGLTAGNTTRGHRFEVKQTELIIDHADRYASLLETEGAVIPGFDRRRSWIREGLEAAASAVQLRCISDEVLLDEVTALVEYPNILMGAFPTDFLEVPQECLISTMKINQKYFPLLDTDGKLTNQFLIVANITPADPGQIISGNERVIRSRLADAKFFFDHDRKRTLASRLPDLDKVIYHHQLGSQGERTRYVQTLARIIGRLLGDDNLAGQADQAAMLAKADLLTDMVGEFPELQGIMGRYYARFEGMDETIAFAIEDHYKPRFAGDVLPRSMAGICVALADKLETLISLFSIGQLPTGDKDPYALRRHALGVIRILIEKNLPIGLDVLISRAADVLQDEMIGKQDSGPGHARPVTPQLVGQLQDFFYDRLAASLRDQGYTAQEVEAVLNLRPSL”, the “soluble on expression in E. coli” value is listed as “not soluble”.

Consider “MGSDKIHHHHHHKSTDYELKYSYAKKYFNAKQYSKSATLLDELVTIFKGTAYAEESLYLLAQSYYGQKDYQTASQYFETYYTTYPKGEFTELSRFYSGYGLYLDSPDPRLDQSQTYKAIEQLQLYLEYYPQSERAEEAQNIMFELQEKLAYKELMATRLYFNLGTYMGNNFQSCVITAQNALKNYPYSKYREEFMFLIIRAKYELALVSVEEKLQGRYRDVVDEYYNYMNEYPEGNYVKQVTKFYDYASKRITDAY”, for which the “soluble on expression in E. coli” value is “not soluble”.

For the sequence “MGSDKIHHHHHHMATSQWRLIASICFLALTGWSTKAVSAETDKPPFYQVQWQGKSAYLLGSIHIGRADFYPLPTQIETALGKAKGLVVEVDMNKADSNALLRQYGRADKTKGLDWQSRDKQTVESMTPYCAATANVCQSIQSFAPWLQATQVNLIRYNNLGYSTDYGVDMQLMARHAALPVYQLETAESQFQLLASFDSQAQWSMVREAISTSDADLLSLIAAWRSGNEAELDSIMQEQMGGEGDTEMLEKILWRRNHVMADGIIKLMGSTEITSPLFVVVGAGHVVGDKSVVQLLEQAGAKVSACWKQTCQ”, the “soluble on expression in E. coli” value is reported as “not soluble”.

For “MGSDKIHHHHHHMNITIATLGELLVEFLAKKENQGFSSPGEFWGPYPSGAPAIFADQVAKLGFRSLLFSCVGNDAFGVMNITRLSRDGVNVQGISVLPNATTGSAFVSYRSQAQRDFIFNMPDSACGLLSADHLDETLLRQYRHFHIMGSSLFSFRLIDAVRKAISIVKENGGTISFDPNIRKEMLKIREMSQAFEYILDYTDFFLPSDGELDYFGLSKSRDEEKIVARLHKRGIAHVIIKRGARGASYYSKDEQHHVAGYPVKVVDPTGAGDCFGATFVSLFLAGYSVPDALAHANAAGSLAISARGPMEGTSTLAQIKELMRQQN”, the “soluble on expression in E. coli” value is “not soluble”.

Turning to “MAELRSFIFIDRLQPQTMSYLGTWIKGALPRANMAAQIIEVAPGLDIEGVTDVALKHAEVKAGILVVERQFGYLEFHGETGAVKAAADAALDYLGGDPDAAVRPEILASRIISSIDHQHAFLINRNKIGSMVLPGESLFVLEVAPASYAILATNEAEKAADVKVVDFRMIGATGRVYLSGTEADVRQAADAARDALAVLQGA”, the “soluble on expression in E. coli” value is on record as “soluble”.

In the case of “MTIKTTMGILAGKASHFVLSKLGRGSTLPGKIALKFDKDILDTLAKDYEIVVVTGTNGKTLTTALTVGILKEAYGEIVTNPSGANMITGITSTFLTAKRAKSGKKIAVLEIDEASLPKITEYITPSLFVFTNIFRDQMDRYGEIYTTYQMILDGAAKAPAATILANGDSPLFNSKELVNPVRFYGFDTEKHAPELTHYNTEGIVCPKCESILQYHLNTYANLGDYVCLNCDFHRPELDYKLTQLTKITNTTSEFIIDGQDYKINVGGLYNIYNALAAVSVAEFFGVVPEQIKAGFDKSRAIFGRQETFKIGDKSCTLVLIKNPVGASQALDMIKLADYPFSLSVLLNANYADGIDTSWIWDANFESILDMDIPEINAGGVRHSEIARRLRVTGYPEDKITQAEKLEDIMTLIEKQDCDHAYILATYTAMLEFRDILAQRHAVGKGMN”, the “soluble on expression in E. coli” value is “not soluble”.

Regarding “MAHHHHHHMDSEPFAFDGEGSRARQSEYVDMTLVHLGMKLRDMGIAFEDMELATVPTQFAEQLLSYIEAFEERESAIRAATTEHRAQLEQEQKRLESLQEATEKARGEVAILSERISSALSAFRGEEKLEAQHRRERQRDVQDIVRQIEKKELELRRETMERDRLSKMLKKVKK”, the “soluble on expression in E. coli” value is given as “soluble”.

Values taken from the DeepSol protein solubility set.
